Results published in US20110319318A1, “COVALENT MILK PROTEIN/ISOTHIOCYANATE COMPLEXES” (NESTEC S.A., priority 2009, published 2011).

Legend:
[1] = Foaming properties (Foamscan); format: physicochemical; parameters: key to foam capacity: FC = volume of foam / volume of gas injected; key to foam expansion: FE = volume of foam / volume of liquid in the foam; conditions: for foam capacity / foam expansion / foam liquid stability: 55 μM BLG; for foam volume stability: over 30 min
Protocol: Foaming properties of samples (prepared as described in example 1) were evaluated using the standardized method proposed by Guillerme C, Loisel W, Bertrand D, Popineau Y. Study of foam stability by video image analysis: Relationship with the quantity of liquid in the foams. 1993. J Text Stud, 24, 287-302. The apparatus used was a standard version of the Foamscan™ from Teclis-ITConcept (Longessaigne, France). The principle of the method is to foam a definite quantity of protein dispersion by infusing gas into it through a glass frit of specific porosity. The gas flow and duration of the bubbling are controlled. The foam is generated on the surface of the liquid and it rises in the glass tube where its height is followed in real time by image analysis using a charged-coupled device (CCD) camera. The amount of liquid incorporated into the foam and the drainage rate are followed by measuring the conductivity as a function of time and with reference to the conductivity of the solution before bubbling, in the cuvette (with the remaining liquid phase), and at electrodes placed at different heights of the tube (Kato A, Takahashi A, Matsudomi N, Kobayashi K. Determination of foaming properties of proteins by conductivity measurements. 1983. J Food Sci, 48, 62-65).
BLG-AITC conjugates were prepared as described in example 1 and then acidified to pH 7.0 or 4.0 by adding 1M HCl. The amount of HCl added was ˜0.02% and ˜0.8% of the total volume, for neutral and acidic pH adjustment, respectively. 12 mL of each sample at both pHs, was put into 12 mL-glass vial and heated on 85° C. for 15 min, in addition to 5 min necessary for temperature in the vial to reach 85° C. The heating was done without agitation, in a temperature-controlled water-bath. Subsequently, samples were let to cool down at room temperature over 40 minutes under a mild agitation, and then put on ice until further analysis.
A volume of 20 mL of the sample solution (non-heated and heated BLG-AITC covalent complexes with the AITC to BLG molar ratio 0.5, 1 and 2, at both pH), diluted to 55 μM BLG (0.1%) was placed in the cuvette. Nitrogen at the flow rate 80 mL/min was bubbled in through the glass frit of porosity 4, creating the air bubbles with diameters between 10 and 16 μm. This flow rate allowed efficient foam formation before strong gravitational drainage occurred. The bubbling was stopped when the foam volume of 110 cm^3 was reached. Subsequently, foam capacity (FC=volume of foam/volume of gas injected) and foam expansion (FE=volume of the foam/volume of the liquid in the foam) were calculated. Foam volume and liquid stability (time for the foam to drain 50% of its initial liquid content) were followed over next 30 min at 24±1° C.

[2] = biological target: T1, β-lactoglobulin (BLG) (Bos taurus, UniProt P02754); assay: Binding of AITC to BLG from disappearance of free -SH / -NH2 groups (Ellman's reagent, OPA); parameters: species or system bovine; conditions: 25° C., pH 8.5
T1 construct: The composition in the major whey protein fraction was 89.22% BLG; purchased Davisco Biopure, lot JE 001-3-922
T1 sequence (P02754 17-178): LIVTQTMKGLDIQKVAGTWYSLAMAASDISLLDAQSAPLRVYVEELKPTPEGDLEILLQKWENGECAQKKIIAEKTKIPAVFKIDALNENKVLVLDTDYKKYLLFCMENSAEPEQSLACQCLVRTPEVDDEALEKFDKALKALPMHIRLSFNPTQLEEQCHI
Protocol: A volume of 50 mL of mixtures was prepared by mixing 1 mM BLG (pH 8.5) with 200 mM AITC in Millipore® water to obtain AITC to BLG molar ratios from 0.1 to 40. Final concentration of ethanol in all sample solutions was adjusted to 5%. Samples were incubated 24 h at room temperature, under agitation (using a roller mixer SRT2, Milian, Switzerland) and protected from light. Upon incubation, contents in free sulfhydryl (—SH) and amino (—NH2) groups were determined using the Ellman's reagent [5,5′-dithio-bis(2-nitrobenzoic acid); DTNB] (Ellman G L. Tissue sulfhydryl groups. 1959. Arch Biochem Biophys, 82, 70-77) and o-phthaldialdehyde (OPA) methods (Hofmann K, Hamm R. Sulfhydryl and disulfide groups in meats. 1978. Adv Food Res, 24, 1-111), respectively.
To determine the amount of total —SH groups sample mixtures were diluted to the final BLG concentration 50 μM in 200 mM Tris-base (Tris(hydrohymethyl)-aminomethan) buffer containing 1% SDS and 8M urea at pH 8.0. 50 μL of 10 mM DTNB in ethanol was added to 3 mL of these samples and they were left 20 min at room temperature under mild agitation. The absorbance at 412 nm was measured against corresponding reagent blanks (1% ethanol in the buffer with DTNB) using an Uvikon® 810 spectrophotometer (Kontron Instruments, Basel, Switzerland). […] Therefore, absorbance values of samples were corrected for the absorbance of corresponding concentrations of AITC. Concentration of SH groups in sample solutions was assessed according to the previously made standard calibration curve. For that purpose L-Cys (Fluka, Switzerland) dissolved in the same buffer in concentration range 0.005-0.1 mM was used.
Quantitative determination of free α- and ε-amino groups was done using the approach based on the method of Goodno et al. (Goodno C. C. Swaisgood H. E., Catignani G. L.; (1981). A fluorimetric assay for available lysine in proteins. Anal. Biochem. 115(1), 203-211.) with modifications done in our laboratory. Briefly, the determination of amino groups was carried out by mixing sample solutions (0.1 mL) with 0.3% (w/v) N-acetyl-L-cystein (Fluka, Switzerland) in borate buffer pH 9.3 (9.1 mL) and 20% SDS (w/w; 0.5 mL). […] Upon incubation, mixtures were allowed to cool down at room temperature for 30 minutes before absorbance reading was done at 340 nm. […] Therefore, absorbance values of samples were corrected for the absorbance of corresponding AITC concentrations. Concentration of free (α- and ε-) amino groups in sample solutions was assessed according to the previously made standard calibration curve. […]
Assuming that one AITC can bind per one —SH group or per one —NH2 group at the time, the molar binding ratio of AITC to BLG (BAITC/BLG) was estimated from measured values for free —SH and —NH2 groups. […]

[3] = Emulsifying properties, 10% sunflower oil-in-water emulsions, stability on storage; format: physicochemical
Protocol: Emulsifying properties of BLG-AITC conjugates, non-heated and heated at pH 7.0 and 4.0 (prepared as described in examples 1 and 2), were evaluated by preparing emulsions containing 10% (w/w) of “high oleic” sunflower oil (Oleifico SABO, Manno, Switzerland). Samples containing BLG-AITC conjugates in the equimolar ratio were diluted to 0.25 mM BLG and mixed with oil in a pyrex tube (D 25 mm, V 35 mL) to a final weight of 20 g. They were pre-homogenized using an Ultra Turrax® T25 equipped with a S25N-10G dispersing head (IKA-Werke, Staufen, Germany) rotating at 16,000 rpm for 1 minute. Homogenization of emulsions was completed using an ultrasonic processor (Hielscher UP400S, power 400 W, frequency 24 kHz) and a sonotrode (diameter 7 mm, approx. length 100 mm, titanium) at room temperature for 75 seconds and 75% amplitude of the ultrasound maximal power. This emulsification time was enough to disperse the oil in small droplets and to avoid excessive heating of the sample.
Stability of emulsions to creaming and flocculation was followed over 33 days of storage at 4° C.

[4] = tested on: Staphylococcus aureus; assay: Antimicrobial activity, optical density decrease at 600 nm; format: cell-based; conditions: 0.5 mM BLG, AITC/BLG molar ratio 1 to 20, 24 h at 37° C.
Protocol: (§1) Antimicrobial properties of BLG-AITC conjugates were tested against Escherichia coli and Staphylococcus aureus. Single colony of each bacteria strain, previously grown on agar plates, was inoculated into 10 mL of brain-heart infusion (BHI) broth and incubated 24 h at 37° C. under agitation. For antimicrobial properties evaluation these pre-cultures were diluted 100 times in BHI broth.
(§2) BLG-AITC covalent complexes, with the AITC to BLG molar ratio 1, 2, 10 and 20, were prepared as described in the example 1 with the difference that 200 mM AITC solution was prepared in DMSO. Samples were subsequently acidified to pH 7.0 and then concentrated 5 times by using Centrisart® I centrifugal ultrafiltration units with cellulose triacetate ultrafilters having the molecular weight cut-off of 10 kDa (Sartorious, Germany) according to manufactures instructions.
(§3) An aliquot of 600 μL of concentrated samples was added to 2.4 mL of BHI broth containing E. coli or S. aureus to reach the starting concentrations of BLG (0.5 mM) and corresponding concentration of AITC. Controls in which 600 μL of 5% DMSO or water was added were prepared as well. Test tubes with sample mixtures were then incubated 24 h at 37° C. under stirring. Subsequently, optical densities (OD) of samples were measured at 600 nm. To evaluate the inhibition of bacteria growth, ODs of samples containing BLG-AITC covalent complexes were normalized by OD of the corresponding control and are expressed as the OD decrease in percentage.

[5] = tested on: Escherichia coli; assay: as above; format: cell-based; conditions: 0.5 mM BLG, AITC/BLG molar ratio 1 to 20; 24 h at 37° C.; OD 600 nm
Protocol: as §1, §2, §3

[6] = pH 4.0 with heating (85° C., 15 min)
[7] = pH 7.0, with or without heat treatment
[8] = pH 7.0 with heating (85° C., 15 min)

With “AITC/BLG ratio 1: BLG-AITC covalent complex, AITC to BLG molar mixing ratio 1” the foam capacity [1, 6] was 1.17 ± 0.01, the foam expansion [1, 6] was 7.3 ± 0.2 and the foam liquid stability [1, 6] was 190.5 ± 2.4 s. It also gave a foam capacity ([1]; pH 4.0 without heating) of 1.18 ± 0.01, a foam expansion ([1]; pH 4.0 without heating) of 7.1 ± 0.1 and a foam liquid stability ([1]; pH 4.0 without heating) of 217.5 ± 1.0 s. For the same compound, the foam volume stability [1, 7] was “best foam stability”, the foam capacity [1, 8] was 1.14 ± 0.02 and the foam expansion [1, 8] was 6.8 ± 0.1. For the same compound, the foam liquid stability [1, 8] was 130.0 ± 4.2 s, the foam capacity ([1]; pH 7.0 without heating) was 1.16 ± 0.01 and the foam expansion ([1]; pH 7.0 without heating) was 6.7 ± 0.1. It also gave a foam liquid stability ([1]; pH 7.0 without heating) of 159.0 ± 1.8 s.
For C=CCN=C=S [AITC, Allyl-isothiocyanate], the “dissociation constant KD” value ([2]; -SH group of BLG) was “very low”, the “dissociation constant KD” value ([2]; amino groups of BLG) was “high” and the “number of possible binding sites” value ([2]; amino groups of BLG) was “larger number of possible binding sites”. For the same compound, the “maximum number of saturation site (nmax)” value ([2]; single free sulfhydryl group of BLG, one site binding fit) was 0.84±0.06, the “ability to emulsify the oil” value ([3]; 0.25 mM AITC alone, 10% of sunflower oil) was “not able to properly emulsify” and the oiling-off ([3]; 0.25 mM AITC alone, at day=0 and after 24 days of storage) was “significant oiling-off”.
With “AITC/BLG ratio 0.5: BLG-AITC covalent complex, AITC to BLG molar mixing ratio 0.5” the foam capacity [1, 6] was 1.16 ± 0.00, the foam expansion [1, 6] was 7.1 ± 0.2 and the foam liquid stability [1, 6] was 200.0 ± 6.9 s. The foam capacity ([1]; pH 4.0 without heating) was 1.18 ± 0.01, the foam expansion ([1]; pH 4.0 without heating) was 7.1 ± 0.0 and the foam liquid stability ([1]; pH 4.0 without heating) was 204.5 ± 8.5 s. The foam capacity [1, 8] was 1.14 ± 0.01, the foam expansion [1, 8] was 6.7 ± 0.1 and the foam liquid stability [1, 8] was 133.0 ± 4.7 s. For the same compound, the foam capacity ([1]; pH 7.0 without heating) was 1.16 ± 0.01, the foam expansion ([1]; pH 7.0 without heating) was 6.8 ± 0.1 and the foam liquid stability ([1]; pH 7.0 without heating) was 152.0 ± 3.3 s.
“AITC/BLG ratio 2: BLG-AITC covalent complex, AITC to BLG molar mixing ratio 2” showed a foam capacity [1, 6] of 1.16 ± 0.01, a foam expansion [1, 6] of 7.1 ± 0.2 and a foam liquid stability [1, 6] of 193.0 ± 2.7 s. For the same compound, the foam capacity ([1]; pH 4.0 without heating) was 1.18 ± 0.01, the foam expansion ([1]; pH 4.0 without heating) was 7.0 ± 0.0 and the foam liquid stability ([1]; pH 4.0 without heating) was 216.3 ± 5.0 s. It also gave a foam capacity [1, 8] of 1.16 ± 0.01, a foam expansion [1, 8] of 6.7 ± 0.1 and a foam liquid stability [1, 8] of 128.0 ± 3.8 s. For the same compound, the foam capacity ([1]; pH 7.0 without heating) was 1.17 ± 0.01, the foam expansion ([1]; pH 7.0 without heating) was 6.8 ± 0.1 and the foam liquid stability ([1]; pH 7.0 without heating) was 145.5 ± 3.9 s.
With “BLG-AITC covalent complexes: covalent complexes of β-lactoglobulin and allyl isothiocyanate, various AITC to BLG molar ratios” the “sensitivity compared with E. coli” value [4] was “more sensitive”, the “reduction of optical density (OD)” value ([4]; OD 600 nm) was “able to reduce the optical density” and the “reduction of optical density (OD)” value [5] was “able to reduce the optical density”. The “stability of emulsions to creaming and flocculation” value ([3]; 10% sunflower oil, molar ratio 1:1, 0.25 mM BLG, 33 days of storage at 4° C., neutral or acidic pH, with or without heat treatment) was “very stable emulsions”, the “improvement of foam liquid stability (more time stability)” value ([1]; foam produced in acidic conditions versus pH 7.0) was “more than 30%” and the foam volume stability ([1]; pH 4.0, without or with heating) was “more volume stable than at pH 7.0”. The foam volume stability [1, 7] was “volume stable foams”.
